Laboratory results as given in PMC4316792, “The dehydrogenase region of the NADPH oxidase component Nox2 acts as a protein disulfide isomerase (PDI) resembling PDIA3 with a role in the binding of the activator protein p67^phox” (Frontiers in Chemistry, 2015).
Entries after “also recorded” stand apart in the source; their conditions may differ. Bridges are numbered along the chain shown (N, C = ends). The star is where a group is joined. Biotin = O=C1N[C@H]2[C@H](CS[C@H]2CCCCC(=O)*)N1

Assays:
[1] = test system: NADPH oxidase; set-up: method as in 8 sources, one per row (each row's own in cited_ref): ref Shpungin et al., [1989] ||| ref Bellavite et al., [1983]; Gabig and Lefker, [1984] ||| ref Pick et al., [1987] ||| ref Le Cabec and Maridonneau-Parini, [1995] ||| ref Nishida et al., [2005] ||| ...; settings: acts on a membrane component; ref Shpungin et al., [1989]; cited from earlier work
[2] = test system: NADPH oxidase in intact phagocytes / neutrophils; set-up: method as in 3 sources, one per row (each row's own in cited_ref): ref Cohen and Chovaniec, [1978]; Yamashita et al., [1984] ||| ref Le Cabec and Maridonneau-Parini, [1995] ||| ref Tsunawaki et al., [2004]; settings: added before activation; ref Cohen and Chovaniec, [1978]; Yamashita et al., [1984]; cited from earlier work
[3] = test system: p67^phox(1–526); experiment: Effect of thiol reagents on binding of p67phox(1–526) to Nox2 peptide 24; settings: 1 h room temperature
[4] = molecular target: NusA-Nox2(357–570) (human) (UniProt P04839); experiment: SEC; FPLC gel filtration on HiLoad 16/60 Superdex 200 prep grade; separated a polymeric fraction from a homodimer fraction
[5] = test system: PDI; settings: disulfide form; ref Kersteen and Raines, [2003]; Wang et al., [2011]; cited from earlier work
Description: Based on the resemblance of the CXC motif with the CXXC motif characteristic of the catalytic motifs of PDI and thioredoxin, we synthesized analogs of Nox2 peptide 24 ([…]) in which the CGC sequen ...

[6] = molecular target: T1, p67^phox(1–526) (UniProt P19878 1-526); experiment: ELISA; peptide—protein binding of p67^phox to Nox2 peptide 28, told in the results without a figure (the introduction gives manuscripts in preparation); settings: both partners purified
T1 construct: construct as in Mizrahi et al., 2010; also called full-length p67^phox; 6His-p67^phox; source: E. coli, purified (Nickel Sepharose); not shown: 6His, N-terminal, kept
T1 sequence (looked up): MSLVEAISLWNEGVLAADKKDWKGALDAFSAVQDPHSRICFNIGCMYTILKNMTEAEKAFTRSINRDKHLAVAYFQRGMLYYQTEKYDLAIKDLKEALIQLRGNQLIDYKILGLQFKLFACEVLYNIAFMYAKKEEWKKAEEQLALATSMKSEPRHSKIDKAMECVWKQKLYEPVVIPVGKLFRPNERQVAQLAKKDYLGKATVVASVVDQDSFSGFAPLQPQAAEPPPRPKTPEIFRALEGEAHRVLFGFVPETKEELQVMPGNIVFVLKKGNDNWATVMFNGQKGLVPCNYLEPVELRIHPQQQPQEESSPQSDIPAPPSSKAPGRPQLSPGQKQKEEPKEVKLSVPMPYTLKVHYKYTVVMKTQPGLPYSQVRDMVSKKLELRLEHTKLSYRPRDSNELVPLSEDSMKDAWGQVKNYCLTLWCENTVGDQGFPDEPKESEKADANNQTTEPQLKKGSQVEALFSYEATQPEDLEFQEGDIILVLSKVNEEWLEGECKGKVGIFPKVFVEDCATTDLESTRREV

[7] = molecular target: T2, p67^phox(1–212) (UniProt P19878 1-212); experiment: as above; settings: both partners purified
T2 construct: contains four cysteines (40, 45, 121, 165); source: E. coli, purified (Nickel Sepharose); not shown: 6His, N-terminal, kept
T2 sequence (looked up): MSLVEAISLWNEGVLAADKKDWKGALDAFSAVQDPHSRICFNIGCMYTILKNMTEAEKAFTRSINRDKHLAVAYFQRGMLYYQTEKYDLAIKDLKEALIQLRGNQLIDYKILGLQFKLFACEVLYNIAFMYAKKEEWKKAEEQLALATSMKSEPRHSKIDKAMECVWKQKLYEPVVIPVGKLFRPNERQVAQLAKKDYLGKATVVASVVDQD

[8] = Binding of thiol reagent mBBr to p67phox(1–212); settings: results not shown
[9] = test system: Nox2 peptide 24 (357–371); experiment: Peptide–protein binding assay, wild type and Cys to Ser mutant p67phox(1–212) to Nox2 peptide 24; settings: 3 experiments (Figure 12); for binding to Nox2 peptide 24 in the disulfide form: 24N CGC S-S; for binding to Nox2 peptide 24 in the dithiol (reduced) form: 24N CGC
[10] = molecular target: T3, NADPH oxidase (macrophage membrane liposomes, cytochrome b558) (Cavia porcellus, UniProt H0UXC6); experiment: Cell-free NADPH oxidase activation, amphiphile- and p47phox-independent; type: biochemical, guinea pig; settings: equal concentrations of p67phox and prenylated Rac1 Q61L 50–600 nM, 5 nM cytochrome b558 heme, 5 min (Figure 13B), read-out: EC50, support of NADPH oxidase activation
[11] = molecular target: T3, NADPH oxidase (macrophage membrane liposomes, cytochrome b558); experiment: Cell-free NADPH oxidase activation, amphiphile- and p47phox-dependent; type: biochemical, guinea pig; settings: for EC50: equal concentrations of p67phox, p47phox and Rac1 Q61L 10–200 nM, LiDS 120 μM, 5 nM cytochrome b558 heme, 90 s (Figure 13A), read-out: EC50, support of NADPH oxidase activation
[12] = test system: p67^phox(1–212); experiment: Protein–protein binding assay, p67phox(1–212)
[13] = test system: oxidized insulin; experiment: Insulin reduction (turbidimetric) assay; type: biochemical; settings: up to 5 μM
[14] = PDI reductase activity, DE-GSSG reduction; type: biochemical; settings: for Vmax, PDI reductase activity (Figure 6B): DTT only 5,124
[15] = test system: p67^phox(1–526); experiment: Protein–protein binding assay, p67phox(1–526); settings: homodimers, 0.5 μM, p67phox coated at 0.5 μM; one characteristic experiment (Figure 5A)

CCN1C(=O)C=CC1=O [NEM, N-ethylmaleimide]
inhibition of oxidase activation in vitro [1]: inhibited
inhibition of oxidase activation in intact phagocytes [2]: inhibited
effect of pretreatment of p67phox on low affinity binding to native form of peptide 24 ([3]; NEM 0.1 mM or diamide 5 mM, three experiments (Figure 2A,B)): suppressed
effect of NEM pretreatment of p67phox on binding to peptide 24 in the disulfide form ([3]; p67^phox(1–526) 1.5 μM, NEM 0.1 mM, three experiments (Figure 2A)): totally abolished

NusA-Nox2(357–570) (from UniProt P04839 357-570) (domain or fragment)
stoichiometry N [4]: 2

RKCGC (disulfide) [small peptide RKCGC]
mimicry of the actions of PDI protein [5]: can mimic the actions of PDI protein

B1: Nox2 peptide 28 (369–383) with an intramolecular disulfide bond linking cysteines 369 and 371 (peptide)
peptide: Biotin-SGSGCGCDKQEFQDAWKLP-NH2
modifications: disulfide 5-7
SMILES: CC(C)C[C@H](NC(=O)[C@H](CCCCN)NC(=O)[C@H](Cc1c[nH]c2ccccc12)NC(=O)[C@H](C)NC(=O)[C@H](CC(=O)O)NC(=O)[C@H](CCC(N)=O)NC(=O)[C@H](Cc1ccccc1)NC(=O)[C@H](CCC(=O)O)NC(=O)[C@H](CCC(N)=O)NC(=O)[C@H](CCCCN)NC(=O)[C@H](CC(=O)O)NC(=O)[C@@H]1CSSC[C@H](NC(=O)CNC(=O)[C@H](CO)NC(=O)CNC(=O)[C@H](CO)NC(=O)CCCC[C@@H]2SC[C@@H]3NC(=O)N[C@@H]32)C(=O)NCC(=O)N1)C(=O)N1CCC[C@H]1C(N)=O
notes: spacer between the N-terminal biotin and the peptide, printed as Ser-Gly-Ser-Gly; also called peptide 28, disulfide form; source: synthetic peptide (Mimotopes or Bachem); not shown: biotin, N-terminal, kept
binding result [6]: binds
binding result [7]: binds

B2: p67^phox(1–212): wild-type recombinant p67phox residues 1–212 (protein)
chain: MSLVEAISLWNEGVLAADKKDWKGALDAFSAVQDPHSRICFNIGCMYTILKNMTEAEKAFTRSINRDKHLAVAYFQRGMLYYQTEKYDLAIKDLKEALIQLRGNQLIDYKILGLQFKLFACEVLYNIAFMYAKKEEWKKAEEQLALATSMKSEPRHSKIDKAMECVWKQKLYEPVVIPVGKLFRPNERQVAQLAKKDYLGKATVVASVVDQD
modifications: left off: 6His, N-terminal, kept
binding of mBBr [8]: bound mBBr
binding to Nox2 peptide 24 in the disulfide form [9]: much enhanced binding
binding to Nox2 peptide 24 in the dithiol (reduced) form [9]: moderate binding
EC50 [10]: 224 nM
EC50 [11]: 57.2 nM
binding of NusA-Nox2 to p67phox(1–212) relative to p67phox(1–526) ([12]; Figure 5A,B): exceeded

B3: Mutant p67^phox: recombinant p67phox(1–212) in which cysteines 40, 45, 121, and 165 were mutated to serine (protein)
chain: MSLVEAISLWNEGVLAADKKDWKGALDAFSAVQDPHSRISFNIGSMYTILKNMTEAEKAFTRSINRDKHLAVAYFQRGMLYYQTEKYDLAIKDLKEALIQLRGNQLIDYKILGLQFKLFASEVLYNIAFMYAKKEEWKKAEEQLALATSMKSEPRHSKIDKAMESVWKQKLYEPVVIPVGKLFRPNERQVAQLAKKDYLGKATVVASVVDQD
modifications: left off: 6His, N-terminal, kept
notes: recombinant p67phox(1–212) in which cysteines 40, 45, 121, and 165 were mutated to serine
binding of mBBr [8]: did not
binding to Nox2 peptide 24 in the disulfide form ([9]; listed as mutant protein): markedly reduced
binding to Nox2 peptide 24 in the dithiol (reduced) form ([9]; listed as mutant protein): lacked binding ability; also recorded: markedly reduced
EC50 [10]: 405 nM
increase in EC50 versus wild-type [11]: two-fold
EC50 [11]: 114 nM

B4: NusA-Nox2(357–570): fusion protein of NusA and Nox2 residues 357–570, contains the CGC triad (protein)
chain: IVGDWTEGLFNACGCDKQEFQDAWKLPKIAVDGPFGTASEDVFSYEVVMLVGAGIGVTPFASILKSVWYKYCNNATNLKLKKIYFYWLCRDTHAFEWFADLLQLLESQMQERNNAGFLSYNIYLTGWDESQANHFAVHHDEEKDVITGLKQKTLYGRPNWDNEFKTIASQHPNTRIGVFLCGPEALAETLSKQSISNSESGPRGVHFIFNKENF
modifications: left off: NusA (E. coli), N-terminal, kept | His tag (from the purification on Nickel Sepharose), end not stated, state not stated
notes: fusion protein of NusA and Nox2 residues 357–570, contains the CGC triad
insulin reductase activity [13]: no activity could be detected
Vmax, PDI reductase activity (Figure 7A) ([14]; 1 μM, DE-GSSG 0.8 μM, DTT 12.5 μM, pH 7.0, 24°C, mean ± SEM of 9 experiments): 49,164 ± 2271
Vmax, PDI reductase activity (Figure 6B) ([14]; 1 μM, DE-GSSG 800 nM, DTT 12.5 μM, one characteristic experiment): 41,130 milli relative fluorescence units per min
PDI activity compared with DTT alone ([14]; 2 μM (Figure 6A)): marked excess
Vmax, PDI reductase activity (Figure 6B) ([14]; 2 μM, DE-GSSG 800 nM, DTT 12.5 μM, one characteristic experiment): 62,074 milli relative fluorescence units per min
Vmax, PDI reductase activity in the absence of PAO (Figure 6D) ([14]; 2 μM, DE-GSSG 800 nM, DTT 12.5 μM, one characteristic experiment, DTT only 8,254): 40,306 milli relative fluorescence units per min
Vmax, PDI reductase activity (Figure 6C) ([14]; 2 μM, DE-GSSG 800 nM, DTT 12.5 μM, one characteristic experiment, DTT only 26,248): 127,476 milli relative fluorescence units per min
Vmax, PDI reductase activity (Figure 6B) ([14]; 3 μM, DE-GSSG 800 nM, DTT 12.5 μM, one characteristic experiment): 73,736 milli relative fluorescence units per min
Vmax, PDI reductase activity (Figure 6B) ([14]; 4 μM, DE-GSSG 800 nM, DTT 12.5 μM, one characteristic experiment): 86,162 milli relative fluorescence units per min
dose dependency of reductase activity ([14]; 1–4 μM (Figure 6B)): clear dose dependency
Vmax, PDI reductase activity (Figure 6A) ([14]; NusA-Nox2(357–570) 2 μM, DE-GSSG 800 nM, DTT 12.5 μM, pH 7.0, 24°C, 30 min, DTT only 7,108 and 9,423): 52,312 ± 1,380 milli relative fluorescence units per min
binding of NusA-Nox2 to p67phox(1–526) [15]: significant binding
binding of NusA-Nox2 to p67phox(1–212) ([12]; homodimers, 0.5 μM, p67phox coated at 0.5 μM, one characteristic experiment (Figure 5B)): significant binding
